# Assay results from paper PMC12684077 (Cell, 2025).
# B1: RSV-3301 Fab (Fab, V domains shown)
# VH: QVQLVESGPTLVKPTQTLTLTCSFSGFSLSTRGVGVGWVRQPPGKALECLGFTYWDGDEYYSPSLRNRVTISKDTSKNQVVLTLTNMDPVDTATYFCVHSDLYDRGGYYLYYFDYWGQGTLVTVSS
# VL: DIRVTQSPSSLSASVGDRVTITCRASQTIASYVNWYQQKPGRAPELLIYAASILQSGVPSRFSGRGSGTDFTLTINGLQPEDFATYYCQQSYSSPWTFGQGTKVEIK
# B2: RSV-2245 Fab (Fab, V domains shown)
# VH: QVQLVQSGAEVKKPGASVKVSCKASGYSFSSFGVSWVRQAPGQGLEWLGWISAYNGNTDYAQKVQGRLTMTTDTSTNTAYMELRNLRSDDTAVYYCARDPPASAAAMFDYWGQGTLVTVSS
# VL: not shown
# Target: RSV prefusion F (PR-DM) (Human respiratory syncytial virus A, …, stabilised)
# Assay: cryo-EM structure
row,Binder,stoichiometry N
1,B1,3 copies of the Fab per F trimer
2,B2,3 copies of the Fab per F trimer
